The target of assay [1] is recombinant human PILRA (human, UniProt Q9UKJ1 20-197). Kind of assay: SPR, Carterra LSA, antibody amine-coupled, kinetic fit. Here is the method:
(§1) Binding kinetics of human anti-PILRA-IgG4 antibodies were evaluated by surface plasmon resonance (SPR) using a Carterra LSA instrument (Carterra, Salt Lake City, UT). Antibodies were immobilized in duplicate arrays onto an HC30M sensor chip (Carterra) by amine coupling according to the manufacturer's protocol. After priming the immobilized antibodies with HBS-EP+ (Teknova, Hollister, CA, #8022) running buffer with 0.5 mg/mL BSA (MP Biomedicals LLC, #820451), the immobilized antibodies were tested for their ability to bind to recombinant human PILRA (SEQ ID NO:1) and cynomolgus PILRA (SEQ ID NO:120) and to human PILRB (SEQ ID NO:105) and cynomolgus PILRB (SEQ ID NO:121).
(§2) For binding kinetics analysis, human and cynomolgus PILRA and PILRB analytes were diluted in running buffer to 440 to 470 nM, and diluted 3-fold serially five times, to 1.8 to 1.9 nM, and injected for five minutes over the entire chip using the single channel flow cell to measure association of binding to the immobilized antibodies. Dissociation of the analytes was measured for five minutes, followed by regeneration of the chip with two 30-second injections of 10 mM glycine pH 2.0.

In assay [2] the target is T1, recombinant cynomolgus PILRA (SEQ ID NO:120) (cynomolgus monkey).
T1 construct: also called cyno PILRA
The assay is described as above. As to the method: as §1, §2

Assay [3] has as its target recombinant human PILRB (human, UniProt Q9UKJ0 20-191). The experiment in a line: SPR, Carterra LSA, steady-state fit. Here is the method: as §1, §2
For the human PILRB interactions, the binding was too weak and heterogenous for kinetic constants to be calculated in this assay. Therefore, steady-state affinities were estimated based on the binding level of each analyte concentration at the end of the injections.
On the technique in general: Surface plasmon resonance follows binding to a sensor surface in real time, without labels.

recombinant human PILRB, sequence (Q9UKJ0 20-191 limits assumed): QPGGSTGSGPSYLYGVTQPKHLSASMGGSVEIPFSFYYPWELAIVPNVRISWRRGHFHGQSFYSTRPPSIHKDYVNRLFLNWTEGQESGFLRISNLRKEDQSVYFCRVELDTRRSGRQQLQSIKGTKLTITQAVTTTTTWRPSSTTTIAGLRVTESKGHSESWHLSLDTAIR
T1 sequence (chain, as listed by the source limits assumed): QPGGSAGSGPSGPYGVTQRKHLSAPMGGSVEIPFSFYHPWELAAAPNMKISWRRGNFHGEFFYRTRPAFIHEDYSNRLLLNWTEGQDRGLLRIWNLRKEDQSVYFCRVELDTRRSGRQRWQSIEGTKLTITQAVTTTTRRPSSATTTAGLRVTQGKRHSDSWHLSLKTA
recombinant human PILRA, sequence (Q9UKJ1 20-197 limits assumed): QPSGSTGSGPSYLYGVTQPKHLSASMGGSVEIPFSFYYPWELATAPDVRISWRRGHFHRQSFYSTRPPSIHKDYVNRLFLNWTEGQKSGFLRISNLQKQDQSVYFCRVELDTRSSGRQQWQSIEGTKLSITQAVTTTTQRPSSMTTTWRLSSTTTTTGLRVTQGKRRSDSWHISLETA

B1: X4 (antibody, human IgG4, V domains shown)
VH: QVQLVQSGAEVKKPGSSVKVSCKASGYNFLNYDVNWVRQAPGQGLEWMGGIIPIFGTANYAQKFQGRVTITADESTSTAYMELSSLRSEDTAVYYCATGVGAGWFDPWGQGTLVTVSS
VL: DIVMTQSPDSLAVSLGERATINCKSSQSVYFSPNNKNYLAWYQQKPGQPPKLLIYWASTRESGVPDRFSGSGSGTDFTLTISSLQAEDVAVYYCQQYFEEPYTFGQGTRLEIK
As for B1, the Kd in assay [1] stood at 12 nM; in assay [2], 0.2 nM; in assay [3] it was 138 nM.

B2: X33 (antibody, human IgG4, V domains shown)
VH: QVQLVQSGAEVKKPGSSVKVSCKASGYNFLHYDVNWVRQAPGQGLEWMGGIIPIFGTANYAQKFQGRVTITADESTSTAYMELSSLRSEDTAVYYCATAVGAGWFDPWGQGTLVTVSS
VL: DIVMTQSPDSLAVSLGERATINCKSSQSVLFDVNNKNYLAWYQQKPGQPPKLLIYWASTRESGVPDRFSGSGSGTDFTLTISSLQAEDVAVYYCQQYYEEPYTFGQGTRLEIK
With B2, the equilibrium dissociation constant (Kd) in assay [1] is 0.6 nM; in assay [2], 0.1 nM; in assay [3], 2 nM.

B3: X27 (antibody, human IgG4, V domains shown)
VH: QVQLVQSGAEVKKPGSSVKVSCKASGYNFLNYDVNWVRQAPGQGLEWMGGIIPIFGTANYAQKFQGRVTITADESTSTAYMELSSLRSEDTAVYYCATAVGAGWFDPWGQGTLVTVSS
VL: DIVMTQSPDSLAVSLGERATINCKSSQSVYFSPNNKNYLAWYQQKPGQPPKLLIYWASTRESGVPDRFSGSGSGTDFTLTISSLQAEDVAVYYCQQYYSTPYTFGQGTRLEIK
Consider B3, for which the Kd in assay [1] worked out at 13 nM; in assay [2], 0.5 nM; in assay [3] it was 87 nM.

B4: X24 (antibody, human IgG4, V domains shown)
VH: QVQLVQSGAEVKKPGSSVKVSCKASGYNFLHYDVNWVRQAPGQGLEWMGGIIPIFGTANYAQKFQGRVTITADESTSTAYMELSSLRSEDTAVYYCATGVGAGWFDPWGQGTLVTVSS
VL: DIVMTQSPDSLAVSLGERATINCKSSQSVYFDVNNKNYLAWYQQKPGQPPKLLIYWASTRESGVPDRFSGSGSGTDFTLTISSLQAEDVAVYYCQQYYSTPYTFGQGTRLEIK
On to B4, for which the Kd stood at 1.7 nM in assay [1], 0.2 nM in assay [2] and 16 nM in assay [3].

B5: X26 (antibody, human IgG4, V domains shown)
VH: QVQLVQSGAEVKKPGSSVKVSCKASGYNFLNYDVNWVRQAPGQGLEWMGGIIPIFGTANYAQKFQGRVTITADESTSTAYMELSSLRSEDTAVYYCATAVGAGWFDPWGQGTLVTVSS
VL: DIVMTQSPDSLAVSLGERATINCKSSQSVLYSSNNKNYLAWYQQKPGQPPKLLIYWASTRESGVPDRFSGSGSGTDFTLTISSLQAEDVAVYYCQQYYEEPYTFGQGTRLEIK
Consider B5, for which the Kd in assay [1] was found to be 8.1 nM; in assay [2], 0.3 nM; in assay [3] it was 199 nM.

B6: X17 (antibody, human IgG4, V domains shown)
VH: QVQLVQSGAEVKKPGSSVKVSCKASGYNFLHYDVNWVRQAPGQGLEWMGGIIPIFGTANYAQKFQGRVTITADESTSTAYMELSSLRSEDTAVYYCATAVGAGWFDTWGQGTLVTVSS
VL: DIVMTQSPDSLAVSLGERATINCKSSQSVFFDENNKNYLAWYQQKPGQPPKLLIYWASTRESGVPDRFSGSGSGTDFTLTISSLQAEDVAVYYCQQYFEEPYTFGQGTRLEIK
In the case of B6, the Kd in assay [1] was found to be 0.4 nM; in assay [2] it was 0.1 nM; in assay [3] it was 2 nM.

B7: X28 (antibody, human IgG4, V domains shown)
VH: QVQLVQSGAEVKKPGSSVKVSCKASGYNFLNYDVNWVRQAPGQGLEWMGGIIPIFGTANYAQKFQGRVTITADESTSTAYMELSSLRSEDTAVYYCATAVGAGWFDPWGQGTLVTVSS
VL: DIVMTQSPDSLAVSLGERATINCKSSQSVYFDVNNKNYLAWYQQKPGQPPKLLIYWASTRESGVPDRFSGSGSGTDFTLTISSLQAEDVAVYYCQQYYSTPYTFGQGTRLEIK
Consider B7, for which the Kd in assay [1] stood at 3.8 nM; in assay [2] it was 0.3 nM; in assay [3], 33 nM.

B8: X6 (antibody, human IgG4, V domains shown)
VH: QVQLVQSGAEVKKPGSSVKVSCKASGYNFLNYDVNWVRQAPGQGLEWMGGIIPIFGTANYAQKFQGRVTITADESTSTAYMELSSLRSEDTAVYYCATGVGAGWFDPWGQGTLVTVSS
VL: DIVMTQSPDSLAVSLGERATINCKSSQSVYFDVNNKNYLAWYQQKPGQPPKLLIYWASTRESGVPDRFSGSGSGTDFTLTISSLQAEDVAVYYCQQYFEEPYTFGQGTRLEIK
Regarding B8, the values for the Kd in assay [1], in assay [2] and in assay [3] were 3.1 nM, 0.1 nM and 35 nM, respectively.

B9: X23 (antibody, human IgG4, V domains shown)
VH: QVQLVQSGAEVKKPGSSVKVSCKASGYNFLHYDVNWVRQAPGQGLEWMGGIIPIFGTANYAQKFQGRVTITADESTSTAYMELSSLRSEDTAVYYCATGVGAGWFDPWGQGTLVTVSS
VL: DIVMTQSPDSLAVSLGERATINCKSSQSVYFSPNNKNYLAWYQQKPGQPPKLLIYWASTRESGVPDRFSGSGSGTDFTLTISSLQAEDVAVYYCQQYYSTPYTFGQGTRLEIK
With B9, the Kd in assay [1] was 3.9 nM; in assay [2] it was 0.3 nM; in assay [3], 35 nM.

B10: X9 (antibody, human IgG4, V domains shown)
VH: QVQLVQSGAEVKKPGSSVKVSCKASGYNFLNYDVNWVRQAPGQGLEWMGGIIPIFGTANYAQKFQGRVTITADESTSTAYMELSSLRSEDTAVYYCATGVGAGWFDPWGQGTLVTVSS
VL: DIVMTQSPDSLAVSLGERATINCKSSQSVFFDVNNKNYLAWYQQKPGQPPKLLIYWASTRESGVPDRFSGSGSGTDFTLTISSLQAEDVAVYYCQQYYEEPYTFGQGTRLEIK
Consider B10, for which the Kd in assay [1] came to 2.8 nM; in assay [2], 0.1 nM; in assay [3], 39 nM.

B11: X31 (antibody, human IgG4, V domains shown)
VH: QVQLVQSGAEVKKPGSSVKVSCKASGYNFLNYDVNWVRQAPGQGLEWMGGIIPIFGTANYAQKFQGRVTITADESTSTAYMELSSLRSEDTAVYYCATGVGAGWFDPWGQGTLVTVSS
VL: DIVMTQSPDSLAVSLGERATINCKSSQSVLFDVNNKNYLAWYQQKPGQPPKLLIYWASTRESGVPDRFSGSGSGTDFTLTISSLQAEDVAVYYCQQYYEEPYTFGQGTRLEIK
With B11, the Kd in assay [1] stood at 2.2 nM; in assay [2], 0.1 nM; in assay [3], 38 nM.

B12: X30 (antibody, human IgG4, V domains shown)
VH: QVQLVQSGAEVKKPGSSVKVSCKASGYNFLNYDVNWVRQAPGQGLEWMGGIIPIFGTANYAQKFQGRVTITADESTSTAYMELSSLRSEDTAVYYCATGVGAGWFDPWGQGTLVTVSS
VL: DIVMTQSPDSLAVSLGERATINCKSSQSVYFDVNNKNYLAWYQQKPGQPPKLLIYWASTRESGVPDRFSGSGSGTDFTLTISSLQAEDVAVYYCQQYYEEPYTFGQGTRLEIK
In the case of B12, the figures for the Kd in assay [1], in assay [2] and in assay [3] were 3.3 nM, 0.1 nM and 43 nM, respectively.

B13: X5 (antibody, human IgG4, V domains shown)
VH: QVQLVQSGAEVKKPGSSVKVSCKASGYNFLNYDVNWVRQAPGQGLEWMGGIIPIFGTANYAQKFQGRVTITADESTSTAYMELSSLRSEDTAVYYCATGVGAGWFDPWGQGTLVTVSS
VL: DIVMTQSPDSLAVSLGERATINCKSSQSVFFDVNNKNYLAWYQQKPGQPPKLLIYWASTRESGVPDRFSGSGSGTDFTLTISSLQAEDVAVYYCQQYFEEPYTFGQGTRLEIK
In the case of B13, the values for the Kd in assay [1], in assay [2] and in assay [3] were 2.4 nM, 0.1 nM and 35 nM, respectively.

B14: X32 (antibody, human IgG4, V domains shown)
VH: QVQLVQSGAEVKKPGSSVKVSCKASGYNFLHYDVNWVRQAPGQGLEWMGGIIPIFGTANYAQKFQGRVTITADESTSTAYMELSSLRSEDTAVYYCATAVGAGWFDPWGQGTLVTVSS
VL: DIVMTQSPDSLAVSLGERATINCKSSQSVFFDVNNKNYLAWYQQKPGQPPKLLIYWASTRESGVPDRFSGSGSGTDFTLTISSLQAEDVAVYYCQQYYEEPYTFGQGTRLEIK
Consider B14, for which the Kd in assay [1] worked out at 0.1 nM; in assay [2], 0.1 nM; in assay [3], 2 nM.

B15: X10 (antibody, human IgG4, V domains shown)
VH: QVQLVQSGAEVKKPGSSVKVSCKASGYNFLNYDVNWVRQAPGQGLEWMGGIIPIFGTANYAQKFQGRVTITADESTSTAYMELSSLRSEDTAVYYCATGVGAGWFDPWGQGTLVTVSS
VL: DIVMTQSPDSLAVSLGERATINCKSSQSVFFDENNKNYLAWYQQKPGQPPKLLIYWASTRESGVPDRFSGSGSGTDFTLTISSLQAEDVAVYYCQQYYEEPYTFGQGTRLEIK
B15: the results for the Kd in assay [1], in assay [2] and in assay [3] were 3.2 nM, 0.3 nM and 68 nM, respectively.

B16: X25 (antibody, human IgG4, V domains shown)
VH: QVQLVQSGAEVKKPGSSVKVSCKASGYNFLNYDVNWVRQAPGQGLEWMGGIIPIFGTANYAQKFQGRVTITADESTSTAYMELSSLRSEDTAVYYCATAVGAGWFDPWGQGTLVTVSS
VL: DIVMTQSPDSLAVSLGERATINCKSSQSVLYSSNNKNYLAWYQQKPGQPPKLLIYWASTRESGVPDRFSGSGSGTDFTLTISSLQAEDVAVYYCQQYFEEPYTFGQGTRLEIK
Regarding B16, the dissociation constant Kd amounted to 7 nM in assay [1], 0.3 nM in assay [2] and 211 nM in assay [3].

B17: X15 (antibody, human IgG4, V domains shown)
VH: QVQLVQSGAEVKKPGSSVKVSCKASGYNFLHYDVNWVRQAPGQGLEWMGGIIPIFGTANYAQKFQGRVTITADESTSTAYMELSSLRSEDTAVYYCATAVGAGWFDTWGQGTLVTVSS
VL: DIVMTQSPDSLAVSLGERATINCKSSQSVFFDVNNKNYLAWYQQKPGQPPKLLIYWASTRESGVPDRFSGSGSGTDFTLTISSLQAEDVAVYYCQQYFEEPYTFGQGTRLEIK
Consider B17, for which the Kd is 0.1 nM in assay [1], 0.1 nM in assay [2] and 2 nM in assay [3].

B18: X19 (antibody, human IgG4, V domains shown)
VH: QVQLVQSGAEVKKPGSSVKVSCKASGYNFLHYDVNWVRQAPGQGLEWMGGIIPIFGTANYAQKFQGRVTITADESTSTAYMELSSLRSEDTAVYYCATAVGAGWFDPWGQGTLVTVSS
VL: DIVMTQSPDSLAVSLGERATINCKSSQSVFFDENNKNYLAWYQQKPGQPPKLLIYWASTRESGVPDRFSGSGSGTDFTLTISSLQAEDVAVYYCQQYYEEPYTFGQGTRLEIK
In the case of B18, the Kd in assay [1] was 0.3 nM; in assay [2] it was 0.1 nM; in assay [3], 2 nM.

The term Kd denotes the equilibrium constant for the complex coming apart.

Values taken from patent US20260070976A1 (Alector, published 2026).
